From US20190135921A1, “METHODS OF PREVENTING OR TREATING SLAMF7 POSITIVE AND SLAMF7 NEGATIVE CANCERS” (ADAERATA, LIMITED PARTNERSHIP, priority 2016, published 2019)

Columns and labels:
[1] = system: thymocytes; test: induction of apoptotic thymocytes (annexin V); assay type: cell-based, mouse; conditions: 1 μM, 10 hours, 37° C.; data not shown
[2] = system: Colo205, SW480 and SW620 cells; test: in vitro phagocytosis assay, mouse BMDMs with human non-hematopoietic tumor cells; assay type: cell-based; conditions: BMDMs pretreated with LPS; FIG. 2R
Experimental: In vitro phagocytosis assays. For the microscopy-based assay, 5×10^4 macrophages were seeded overnight in a 24-well tissue culture plate. On the next day, target cells were washed and labeled with 2.5 μM of carboxyfluorescein succinimidyl ester (CFSE), using the CFSE Cell Proliferation Kit (C34554; Life Technologies, Burlington, ON, Canada). After incubating macrophages in serum-free medium for 2 hours, 2×10^5 CFSE-labeled target cells were added to the macrophages, in the presence of anti-CD47 Ab or control IgG (10 μg/mL). After incubation for 2 hours at 37° C., macrophages were extensively washed and imaged with an inverted microscope (Carl Zeiss Axiovert™ S100 TV). The phagocytosis efficiency was calculated as the number of macrophages containing CFSE^+ target cells per 100 macrophages. […] Cells were then stained on ice for 30 minutes with APC conjugated-anti-human Tac (CD25) and PE-conjugated MAb F4/80, and analyzed by flow cytometry. After gating on F4/80^+Tac^− cells (which include macrophages but exclude non-phagocytosed Tac-positive L1210 cells), phagocytosis efficiency was determined as the percentage of F4/80^+Tac^− cells containing CFSE-derived green fluorescence (detected in FL1 channel). […] They were then stained with APC-conjugated anti-F4/80 and analyzed by flow cytometry. […] Phagocytosis was monitored by microscopy. […]

[3] = biological target: T1, mouse CD11b (integrin alphaM, alpha subunit of Mac-1) (mouse, UniProt P05555 17-1153); test: anti-FLAG IP from RAW264.7 cells expressing FLAG-SLAMF7, anti-CD11b immunoblot; confocal co-localization
T1 construct: whole, on cells; Together with CD18 it constitutes Mac-1; Endogenous protein recovered from cell lysates; also called Mac-1 (CD11b); CR3 alpha subunit
T1 sequence (P05555 17-1153): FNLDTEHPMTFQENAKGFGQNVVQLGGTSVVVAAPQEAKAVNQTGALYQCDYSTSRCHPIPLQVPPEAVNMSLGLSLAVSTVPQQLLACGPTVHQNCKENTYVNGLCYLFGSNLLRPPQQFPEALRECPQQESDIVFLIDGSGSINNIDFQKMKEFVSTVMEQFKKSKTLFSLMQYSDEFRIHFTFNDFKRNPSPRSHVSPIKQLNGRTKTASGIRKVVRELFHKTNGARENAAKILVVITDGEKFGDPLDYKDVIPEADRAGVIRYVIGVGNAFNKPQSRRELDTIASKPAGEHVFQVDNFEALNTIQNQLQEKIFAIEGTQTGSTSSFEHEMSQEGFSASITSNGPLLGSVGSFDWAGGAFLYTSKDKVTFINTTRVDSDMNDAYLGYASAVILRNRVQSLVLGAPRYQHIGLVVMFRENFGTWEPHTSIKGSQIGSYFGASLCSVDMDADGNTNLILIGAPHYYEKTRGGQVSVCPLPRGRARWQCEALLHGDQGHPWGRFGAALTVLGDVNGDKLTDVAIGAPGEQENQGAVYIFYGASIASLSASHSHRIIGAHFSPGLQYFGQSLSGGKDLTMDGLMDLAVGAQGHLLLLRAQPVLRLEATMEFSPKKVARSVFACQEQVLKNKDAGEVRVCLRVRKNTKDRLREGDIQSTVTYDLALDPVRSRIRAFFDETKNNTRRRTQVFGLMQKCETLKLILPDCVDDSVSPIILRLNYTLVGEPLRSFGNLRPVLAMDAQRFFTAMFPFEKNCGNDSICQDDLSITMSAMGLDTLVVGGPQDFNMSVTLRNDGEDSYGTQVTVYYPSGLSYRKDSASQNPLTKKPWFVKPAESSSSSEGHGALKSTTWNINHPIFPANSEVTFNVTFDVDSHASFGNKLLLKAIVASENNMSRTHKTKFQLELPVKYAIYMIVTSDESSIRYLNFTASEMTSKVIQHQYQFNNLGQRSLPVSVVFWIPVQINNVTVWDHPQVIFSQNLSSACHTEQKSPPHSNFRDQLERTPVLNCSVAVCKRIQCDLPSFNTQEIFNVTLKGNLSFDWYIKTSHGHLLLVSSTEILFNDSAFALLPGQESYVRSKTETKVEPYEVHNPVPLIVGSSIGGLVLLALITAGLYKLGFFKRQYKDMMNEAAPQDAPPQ
Experimental: (§1) Authenticated cells. (FIG. 9D) Lysates from the mouse macrophage cell line RAW264.7 expressing GFP alone or in combination with a FLAG-tagged version of mouse SLAMF7 (FLAG-SLAMF7) were immunoprecipitated with anti-FLAG. They were then probed by immunoblotting with anti-CD11b (Mac-1) or anti-SLAMF7. Total cell lysates were analyzed in parallel. (FIG. 9E) Co-localization of SLAMF7 and CD11b in RAW264.7 cells expressing GFP alone or with FLAG-SLAMF7 assessed by immunofluorescence. Semi-confluent RAW264.7 cells expressing GFP alone (bottom) or in combination with FLAG-SLAMF7 (top) were fixed and stained with antibodies against FLAG, CD11b (Mac-1) or CD18, as detailed in Example 1. Staining was detected by confocal microscopy. Scale bar, 5 μm. […] (FIG. 9F) As in FIG. 9E, except that only RAW264.7 cells expressing FLAG-SLAMF7 were analyzed and that antibodies coupled to different fluorophores were used. […] (FIG. 9G-A and FIG. 9G-B) RAW264.7 derivatives expressing GFP alone or in combination with FLAG-SLAMF7 were analyzed by flow cytometry, using antibodies directed against FLAG and SLAMF7 (dotted lines). […]
(§2) Immunoprecipitations, mass spectrometry, immunoblots. […] In brief, immunoprecipitated proteins were digested with trypsin (Promega, Madison, Wis.) and analyzed by LC-MS/MS on a LTQ Orbitrap™ Velos (ThermoFisher Scientific, Bremen, Germany) equipped with a Proxeon nanoelectrospray™ ion source. […]

[4] = biological target: T1, mouse CD11b (integrin alphaM, alpha …); test: anti-CD11b immunoprecipitation from WT and CD11b KO BMDM lysates, mass spectrometry
Experimental: as §1, §2

In the case of `C[C@@H]1C[C@H]2[C@@H]3CCC4=CC(=O)C=C[C@]4(C)[C@@]3(F)[C@@H](O)C[C@]2(C)[C@@]1(O)C(=O)CO` [dexamethasone], the “cells becoming apoptotic (annexin V-positive)” value [1] is reported as “about 70%”.

For lipopolysaccharide [LPS], the “phagocytosis of non-hematopoietic targets” value [2] was “phagocytosis of non-hematopoietic targets was seen”.

B1: FLAG-tagged version of mouse SLAMF7 (receptor, UniProt Q8BHK6 23-333, looked up)
chain: SGTLKKVAGALDGSVTFTLNITEIKVDYVVWTFNTFFLAMVKKDGVTSQSSNKERIVFPDGLYSMKLSQLKKNDSGAYRAEIYSTSSQASLIQEYVLHVYKHLSRPKVTIDRQSNKNGTCVINLTCSTDQDGENVTYSWKAVGQGDNQFHDGATLSIAWRSGEKDQALTCMARNPVSNSFSTPVFPQKLCEDAATDLTSLRGILYILCFSAVLILFAVLLTIFHTTWIKKGKGCEEDKKRVDRHQEMPDLCPHLEENADYDTIPYTEKRRPEEDAPNTFYSTVQIPKVVKSPSSLPAKPLVPRSLSFENVI
notes: whole, on cells; It was immunoprecipitated with anti-FLAG from RAW264.7 lysates; also called FLAG-SLAMF7; not shown: FLAG tag
B1: binds [3].

B2: mouse CD64 (Fc receptor) (receptor, UniProt P26151 25-404, looked up)
chain: EVVNATKAVITLQPPWVSIFQKENVTLWCEGPHLPGDSSTQWFINGTAVQISTPSYSIPEASFQDSGEYRCQIGSSMPSDPVQLQIHNDWLLLQASRRVLTEGEPLALRCHGWKNKLVYNVVFYRNGKSFQFSSDSEVAILKTNLSHSGIYHCSGTGRHRYTSAGVSITVKELFTTPVLRASVSSPFPEGSLVTLNCETNLLLQRPGLQLHFSFYVGSKILEYRNTSSEYHIARAEREDAGFYWCEVATEDSSVLKRSPELELQVLGPQSSAPVWFHILFYLSVGIMFSLNTVLYVKIHRLQREKKYNLEVPLVSEQGKKANSFQQVRSDGVYEEVTATASQTTPKEAPDGPRSSVGDCGPEQPEPLPPSDSTGAQTSQS
notes: whole, on cells
B2: no binding [4].

B3: mouse CD16 (Fc receptor) (receptor, UniProt P08508 31-261, looked up)
chain: ALPKAVVKLDPPWIQVLKEDMVTLMCEGTHNPGNSSTQWFHNGRSIRSQVQASYTFKATVNDSGEYRCQMEQTRLSDPVDLGVISDWLLLQTPQRVFLEGETITLRCHSWRNKLLNRISFFHNEKSVRYHHYKSNFSIPKANHSHSGDYYCKGSLGSTQHQSKPVTITVQDPATTSSISLVWYHTAFSLVMCLLFAVDTGLYFYVRRNLQTPREYWRKSLSIRKHQAPQDK
notes: whole, on cells
B3: no binding [4].
